Test results taken from the supplement of paper PMC9732359.
± gives the uncertainty stated by the source.

Test: protein stability index of a GFP-peptide fusion (yeast GPS) (PSI 1-4); higher = more stable; sorted into four equal gates, so the index is relative within each strain
Procedure, shortened: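 Peptides tiling yeast proteins in 17-residue segments were fused downstream of GFP, with Cherry expressed from the same plasmid. As a pooled library in yeast, mid-log cultures grown in leucine-free medium were sorted into four equal gates by GFP/Cherry fluorescence ratio. Gate plasmids were PCR-amplified and Illumina-sequenced, and barcodes linked reads to strains. Each peptide received a protein stability index equal to the sum of each gate's read frequency times its gate number.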

Row | Sequence | protein stability index (doa10∆) | protein stability index (pdr5∆) | protein stability index (san1∆) | protein stability index (ubr1∆)
1 | KKISSFKSLIDEDLLDT [YGL172W/NUP49] | 3.08 ± 0.097 | 3.21 ± 0.079 | 3.12 ± 0.062 | 3.14 ± 0.063
2 | KKLEITSDGALSVMCGC [RPR2] | 2.63 ± 0.047 | 2.82 ± 0.054 | 2.8 ± 0.043 | 2.933 ± 0.029
3 | KKRFDEFMAGFNIISMT [SMC4] | 2.64 ± 0.097 | 2.52 ± 0.11 | 2.87 ± 0.096 | 2.14 ± 0.072
4 | KKSKNGTISKTGKKNKV [SRP14] | 2.93 ± 0.11 | 3.26 ± 0.089 | 3.14 ± 0.059 | 3.51 ± 0.057
5 | KKSKRLDKVGKKKGGKK [LRP1] | 3.16 ± 0.15 | 2.43 ± 0.27 | 2.99 ± 0.12 | 3.24 ± 0.21
6 | KKTRIIPRHLQLAIRND [HTA1] | 2.47 ± 0.088 | 2.69 ± 0.078 | 3.03 ± 0.11 | 2.05 ± 0.081
7 | KKVGITGKYGVRYGSSL [RPL43A] | 3.16 ± 0.065 | 3.28 ± 0.051 | 3.3 ± 0.045 | 3.15 ± 0.033
8 | KKYSSKNKYGEINSEDY [SRP68] | 3.22 ± 0.12 | 2.8 ± 0.18 | 3.34 ± 0.066 | 3.14 ± 0.053
9 | KKYTQNNPLLLIVDVKQ [RPN8] | 1.4 ± 0.068 | 1.31 ± 0.046 | 1.06 ± 0.14 | 1.16 ± 0.048
10 | KLANFFSKKGNEPLSEI [YAR002W/NUP60] | 2.82 ± 0.095 | 3.17 ± 0.076 | 3.14 ± 0.067 | 3.13 ± 0.099
11 | KLCYVLGVEDITLIDSA [RET1] | 1.58 ± 0.12 | 1.73 ± 0.25 | 1.26 ± 0.27 | 1.74 ± 0.07
12 | KLEAEEIPSEDQNEFLL [FAS2] | 2.62 ± 0.13 | 1.75 ± 0.092 | 2.25 ± 0.11 | 3.51 ± 0.16
13 | KLELINRYAYVLSSLMF [LRP1] | 2.21 ± 0.05 | 2.31 ± 0.049 | 1.94 ± 0.064 | 2.65 ± 0.046
14 | KLEYPHTDVSSSLEARY [RPN3] | 2.76 ± 0.066 | 3.01 ± 0.073 | 2.75 ± 0.077 | 2.9 ± 0.086
15 | KLFTTNELMRWPIVQKT [RPN5] | 1.79 ± 0.096 | 1.77 ± 0.078 | – | 1.48 ± 0.044
16 | KLHVAAKLPGHKSLIRS [YGL100W/SEH1] | 1.83 ± 0.11 | 2.03 ± 0.13 | – | 2.33 ± 0.094
17 | KLISAFDDLEVEELPTF [RRP42] | 2.57 ± 0.06 | 2.84 ± 0.05 | 2.5 ± 0.066 | 2.85 ± 0.036
18 | KLKDSKKLFQKKENLTR [YML103C/NUP188] | 2.57 ± 0.12 | 3.3 ± 0.1 | 2.97 ± 0.11 | 3.25 ± 0.1
19 | KLLDSGCENPADVFRRC [SRP72] | 2.46 ± 0.058 | 1.72 ± 0.047 | 2.13 ± 0.1 | 2.16 ± 0.071
20 | KLLKSLKNTKYFQQTTI [PRP8] | 2.12 ± 0.076 | 2.7 ± 0.085 | 2.34 ± 0.068 | 2.59 ± 0.064
21 | KLNDSQRKTVNSDDILS [POP1] | 2.3 ± 0.075 | 1.99 ± 0.1 | 2.38 ± 0.087 | 2.89 ± 0.093
22 | KLNIETMRKISSETDDD [DSN1] | 2.56 ± 0.074 | 2.27 ± 0.13 | 2.77 ± 0.12 | –
23 | KLNKVDKNELQQMIITR [SIR3] | 3.12 ± 0.074 | 3.22 ± 0.07 | 3.28 ± 0.039 | 3.23 ± 0.043
24 | KLPLSVINVSAQRDRRY [RPS17A] | 1.8 ± 0.064 | 1.77 ± 0.058 | 1.43 ± 0.23 | 1.66 ± 0.15
25 | KLREKVNDVELAFKKNE [MTW1] | 3.1 ± 0.13 | 3.02 ± 0.13 | 3 ± 0.15 | 3.06 ± 0.21
26 | KLRETLVKIDDLSANQR [SMC1] | 3.11 ± 0.11 | 3.29 ± 0.12 | 3.07 ± 0.11 | 3.09 ± 0.077

Row | Sequence | protein stability index (doa10∆) | protein stability index (pdr5∆) | protein stability index (san1∆) | protein stability index (ubr1∆)
27 | KLSESLDTRKELWRKEQ [SMC3] | 1.29 ± 0.077 | 1.75 ± 0.1 | 3.19 ± 0.19 | 1.82 ± 0.12
28 | KLTQKLVTAGVAAAGIT [CYT1] | 2.1 ± 0.083 | 2.21 ± 0.086 | 2.56 ± 0.065 | 2.11 ± 0.052
29 | KLVLAARIIAAIPNPED [RPS0A] | 1.71 ± 0.074 | 2.11 ± 0.11 | 2.31 ± 0.099 | 2.5 ± 0.14
30 | KLYDKTENDIKALQSIG [RPT4] | 2.65 ± 0.18 | 2.62 ± 0.2 | 1.87 ± 0.22 | 2.4 ± 0.22
31 | KMDMICRNINRKHRNAQ [DIS3] | 2.2 ± 0.074 | 2.5 ± 0.11 | 2.37 ± 0.086 | 3.12 ± 0.12
32 | KMEKKKSSSLSLESFMK [SNM1] | 3.06 ± 0.1 | 3.32 ± 0.12 | 2.93 ± 0.14 | 2.97 ± 0.084
33 | KMPGGFTITVARKYLQT [FAS2] | 1.24 ± 0.039 | 1.47 ± 0.065 | 1.21 ± 0.084 | 1.27 ± 0.052
34 | KNATDLQQAKLRESEIS [SMC3] | 3.17 ± 0.073 | 3.15 ± 0.071 | 3.11 ± 0.085 | 2.97 ± 0.068
35 | KNDEVLGLLLPIAASTD [RPN1] | 2.02 ± 0.055 | 2.3 ± 0.062 | 2.47 ± 0.063 | 2.6 ± 0.071
36 | KNDTHYLLPDDFHFSTD [BRN1] | 2.81 ± 0.072 | 3.19 ± 0.074 | 2.9 ± 0.055 | 2.95 ± 0.065
37 | KNDTKILVLALEDLKDV [PRP8] | 1.6 ± 0.1 | 1.96 ± 0.099 | 1.55 ± 0.11 | 1.73 ± 0.055
38 | KNEEAEIEVDEMEVDAE [RPN1] | 3.4 ± 0.14 | 3.51 ± 0.11 | 3.19 ± 0.12 | 3.62 ± 0.1
39 | KNEETPQNEKPPAYALL [RPC25] | 2.27 ± 0.23 | – | 2.05 ± 0.14 | 2.74 ± 0.24
40 | KNFENGPKKNVFYAPNV [RPC34] | 2.99 ± 0.068 | 2.94 ± 0.071 | 2.66 ± 0.084 | 3.14 ± 0.063
41 | KNIAQCLSDYTKKISNF [YJL039C/NUP192] | 1.79 ± 0.055 | 2.22 ± 0.055 | 2.02 ± 0.068 | 1.49 ± 0.036
42 | KNISSQLDSKLMVFNDD [YGR119C/NUP57] | 2.12 ± 0.041 | 2.54 ± 0.052 | 2.24 ± 0.056 | 2.08 ± 0.029
43 | KNLNPASSSPSSTDFST [ECM29] | 3.11 ± 0.049 | 2.81 ± 0.045 | 2.97 ± 0.056 | 2.91 ± 0.032
44 | KNMFEKKASKVTVDADI [ISW2] | 2.44 ± 0.063 | 2.87 ± 0.059 | 2.83 ± 0.055 | 2.77 ± 0.054
45 | KNSSQLLNEWSHNVDEL [RPN5] | 2.75 ± 0.057 | 2.81 ± 0.05 | 2.9 ± 0.045 | 2.64 ± 0.049
46 | KNSSVSSLMNGLGYVFE [SRB5] | 3.06 ± 0.14 | 1.72 ± 0.073 | 2.4 ± 0.1 | 2.51 ± 0.056
47 | KPHGLAARVDIGQIIFS [RPL10] | 2.31 ± 0.058 | 2.13 ± 0.037 | 1.72 ± 0.082 | 2.15 ± 0.036
48 | KPKNTKENLSKSSWRQE [SIR4] | 1.35 ± 0.076 | 1.21 ± 0.049 | 1.21 ± 0.1 | 1.5 ± 0.049
49 | KPLGLDRYGNRYFWLDH [ITC1] | 2.77 ± 0.11 | 3.02 ± 0.13 | 2.85 ± 0.056 | 2.74 ± 0.086
50 | KPLGTTRAMEYLKFREL [RPB2] | 2.49 ± 0.065 | 2.86 ± 0.077 | 3.13 ± 0.068 | 2.9 ± 0.056
51 | KPNDLVGVNKDSYLILD [RPT5] | 3.05 ± 0.17 | 3.4 ± 0.19 | 3.35 ± 0.082 | 3.49 ± 0.14
52 | KPSLVDVHLLESKVYHK [RPN6] | 1.74 ± 0.045 | 1.9 ± 0.053 | 1.77 ± 0.086 | 2.05 ± 0.061
